This series can be described thus: soluble on expression in E. coli; label from the status in PepcDB or PDB records.
For the sequence “MKYQLRAIDNQLDEMLQFSGAIAVEGVKGVGKTESAIRRSEHLLQLDRAGDRQLLEADPEFSSFSTGTILIDEWQRMPECWDFVRRGVDAQRTPGRFLLTGSATPQAGIDTHSGAGRILSIRMRPMALFERREHSATVSLADLFLGNAPISGTTDLTLNDYVSEIARSGFPGFNEQPQRAINVELDSYIERIVDRDLPEQGYNVRNRAGLLGWMRAYAAASSTTMSYSEILNAATPGESDKPARKTAALYRSKLTEIWMLDEVPAWDFVRSPLAGLAQAPKHQLADPAFVLRLLGVPANRLVTERYRHFLGPLFESLATLSVRVAAESQFGSVRHLRTRRGDHEVDLIASNQDGDLVAIEVKLTADVKNDDVAHLHWLKEQLPDDVVDMVVLTTGNRAYRRSDGVAVVPLALFGA”, the “soluble on expression in E. coli” value is on record as “not soluble”.

Turning to “MGSDKIHHHHHHMYTQDNVISNNKRLSSFQLSKMHTFEVAARHCSFSLAAEELSMTPSAISHRINALESELGILLFKRSHRKIELTKEGERIYIAVKSSFSSLNQEILEVKSNEISGELTVYSRPSFAQCWLVPRIAGFQKQYPAISLNILTGNENINFHGHGIDVAIYFDEKQPSKLYCQDIMTETIVPVCSPEYAEEFDLIGKINNLSQCTLLHDNQAWGYDSNTDEWALWANNFNINCLASSASIRFDRSDLAVIAAMNNAGVAMGRESFISNQIKRGELIKPFIDKKILCPQRYYVATLPNNKNTKIELFIEWLKNEVQNEGGESIV”, the “soluble on expression in E. coli” value is recorded as “not soluble”.

For “MTTNDTYEATYAIPMHCENCVNDIKACLKNVPGINSLNFDIEQQIMSVESSVAPSTIINTLRNCGKDAIIRGAGKPNSSAVAILETFQKYTIDQKKDTAVRGLARIVQVGENKTLFDITVNGVPEAGNYHASIHEKGDVSKGVESTGKVWHKFDEPIECFNESDLGKNLYSGKTFLSAPLPTWQLIGRSFVISKSLNHPENEPSSVKDYSFLGVIARSAGVWENNKQVCACTGKTVWEERKDALANNIK”, the “soluble on expression in E. coli” value was “soluble”.

On to “MAHHHHHHMGNKLCCINNDLQNSKSSIDIYKYDPREIYGDYDDWTLESWIDKYKNGNSIKVAFPDGNEIQCHFKIFLKERCFELSLDNKVRVIKFNDINCILHRNSCESLLESEQNLLKSPKVIGIRLISTLKAIAFAMDSPGEARMFYEFIEKYCLNG”, for which the “soluble on expression in E. coli” value is on record as “not soluble”.

For “MGSDKIHHHHHHMMKSVLADAVFGGALMIEFYASEALICPRRVWFRLKGIPEKWPEVAKPRLEKGMKIHEVLGKVLKDRFDVELEKSVIIRFPKLGMEIHGKIDVYKEFPIEIKGKSYIPSSPIDYHLAQLNLYLRGVNAEYGYLYYVKLTDDPWRAISDIVFDSFPLIKGNGLKIFEVPYDEVLFKETVKYFYEIKLYLENDELPPAWKGPHCKFCPYNYICLSGEEF”, the “soluble on expression in E. coli” value is recorded as “not soluble”.

Take “MKCKKCGRKAVANLKAYGIALCEKCYPEFYRNLVKRSIKRFRILRPEERVLIAISGGKDSSALAAVLKELDYDAELLYIDLGIGNYSEESERVVRELSSSLDLSLNVVRLRDYGFTVDDVARKMRRKTCSACGTAKRYIMNRFARENSFDVVATGHTAEDIASFYIKNVAGGTRVWAEKLMPRNEPFDEKIVTRAKPLFEVSEKENMLYVLVNDIPHTLMECPHAPNPEWKEIVYDIERRKPGFVKNFVRGLVRPAEEFEETKYCKICGEVSSGDVCAFCRLRERLS”: the “soluble on expression in E. coli” value was “not soluble”.

Take “MSLSFSTLMDKRERGSFDSQFLIAMPGLDDGNFARSVIYICAHSDAGAMGFIINRPQQITFTDILLHLKLVDSNDAIMLPNRTREFPIQCGGPVESGRGFVLHSDDYLSESSIPVSDDISLTATLDIVRAISNGRGPQKATMMLGYAGWGPGQLENEIANNGWLNCPAAEELIFDRGLDNKYERALALMGVDARMLSTDAGHAEGHHHHHH”: the “soluble on expression in E. coli” value was “not soluble”.

For “MLRLDTRFLPGFPEALSRHGPLLEEARRRLLAKRGEPGSMLGWMDLPEDTETLREVRRYREANPWVEDFVLIGIGGSALGPKALEAAFNESGVRFHYLDHVEPEPILRLLRTLDPRKTLVNAVSKSGSTAETLAGLAVFLKWLKAHLGEDWRRHLVVTTDPKEGPLRAFAEREGLKAFAIPKEVGGRFSALSPVGLLPLAFAGADLDALLMGARKANETALAPLEESLPLKTALLLHLHRHLPVHVFMVYSERLSHLPSWFVQLHDESLGKVDRQGQRVGTTAVPALGPKDQHAQVQLFREGPLDKLLALVIPEAPLEDVEIPEVEGLEAASYLFGKTLFQLLKAEAEATYEALAEAGQRVYALFLPEVSPYAVGWLMQHLMWQTAFLGELWEVNAFDQPGVELGKVLTRKRLAG”, the “soluble on expression in E. coli” value is reported as “soluble”.

The values are drawn from the DeepSol protein solubility set.
